# Data published in US20240059797A1 (GRITSTONE BIO, published 2024).
# Target: T1, HLA-A*01:01_… (HLA-PEPTIDE target G2), recombinant biotinylated complex (human, enzymatically biotinylated (BirA))
# T1 construct: also called G2-pHLA
# Assay: BLI, pHLA on sensor, Fab titrated, 1:1 model
Binder,Kd,koff,kon
"G2(1B06) Fab (Fab, V domains shown, Fab) VH: QVQLVQSGAEVKKPGASVKVSCKASGGTFSNYILSWVRQAPGQGLEWMGWINPDSGGTNYAQKFQGRVTMTRDTSTSTVYMELSSLRSEDTAVYYCARGSYGMDVWGQGTTVTVSS VL: DIQMTQSPSSLSASVGDRVTITCRASQSISRWLAWYQQKPGKAPKLLIYAASSLQSGVPSRFSGSGSGTDFTLTISSLQPEDFATYYCQQSYSTPYTFGQGTKLEIK",44.4 nM,0.0323 s⁻¹,1.06e+06 M⁻¹ s⁻¹
"G2(1H01) Fab (Fab, V domains shown, Fab) VH: QVQLVQSGAEVKKPGASVKVSCKASGYTFTRYTINWVRQAPGQGLEWMGWINPNSGGTNYAQKFQGRVTMTRDTSTSTVYMELSSLRSEDTAVYYCARDFVGYDDWGQGTLVTVSS VL: DIQMTQSPSSLSASVGDRVTITCRASQSVGNWLAWYQQKPGKAPKLLIYGASSLQTGVPSRFSGSGSGTDFTLTISSLQPEDFATYYCQQSYSAPYTFGQGTKVEIK",15.5 nM,0.0148 s⁻¹,952000 M⁻¹ s⁻¹
"G2(2A11) Fab (Fab, V domains shown, Fab) VH: EVQLLESGAEVKKPGASVKVSCKASGYTFTTYDLAWVRQAPGQGLEWMGWINPNSGGTNYAQKFQGRVTMTRDTSTSTVYMELSSLRSEDTAVYYCARANWLDYWGQGTLVTVSS VL: DIQMTQSPSSLSASVGDRVTITCRASQDISRWLAWYQQKPGKAPKLLIYAASRLQAGVPSRFSGSGSGTDFTLTISSLQPEDFATYYCQQSYSTPYSFGQGTKLEIK",28.1 nM,0.0172 s⁻¹,633000 M⁻¹ s⁻¹
"G2(1B12) Fab (Fab, V domains shown, Fab) VH: QVQLVQSGAEVKKPGASVKVSCKASGYTFTSYGITWVRQAPGQGLEWMGWINPNSGGTNYAQKFQGRVTMTRDTSTSTVYMELSSLRSEDTAVYYCARDYGDLDYWGQGTLVTVSS VL: DIQMTQSPSSLSASVGDRVTITCRASQNIGNWLAWYQQKPGKAPKLLIYAASTLQTGVPSRFSGSGSGTDFTLTISSLQPEDFATYYCQQSYSAPYSFGQGTKLEIK",22.8 nM,0.00728 s⁻¹,366000 M⁻¹ s⁻¹
"G2(2A03) Fab (Fab, V domains shown, Fab) VH: QVQLVQSGAEVKKPGASVKVSCKASGYTFTSYTVNWVRQAPGQGLEWMGWINPNSGGTKYAQNFQGRVTMTRDTSTSTVYMELSSLRSEDTAVYYCARGGGGALDYWGQGTLVTVSS VL: DIQMTQSPSSLSASVGDRVTITCRASQSISSWLAWYQQKPGKAPKLLIYAASTLQSGVPSRFSGSGSGTDFTLTISSLQPEDFATYYCQQSYLPPYSFGQGTKLEIK",109 nM,0.036 s⁻¹,332000 M⁻¹ s⁻¹
"G2(1H11) Fab (Fab, V domains shown, Fab) VH: QVQLVQSGAEVKKPGASVKVSCKASGYTFTNYYMHWVRQAPGQGLEWMGMINPSGGGTSYAQKFQGRVTMTRDTSTSTVYMELSSLRSEDTAVYYCARGNPWELRLDYWGQGTLVTVSS VL: DIQMTQSPSSLSASVGDRVTITCQASQDISNYLNWYQQKPGKAPKLLIYAASSLQSGVPSRFSGSGSGTDFTLTISSLQPEDFATYYCQQYYSYPFTFGPGTKVDIK",49.9 nM,0.028 s⁻¹,581000 M⁻¹ s⁻¹

# Target: T1, HLA-A*01:01_… (HLA-PEPTIDE target G2), …
# Assay: phage panning, scFv ELISA;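 further: scFv binders from three to four bead panning rounds, tested as PPEs by ELISA on streptavidin plates carrying peptide-HLA complex (2 µg/ml), detected via anti-V5 and HRP anti-mouse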
# Experimental: Phage library screening was carried out according to the overall screening design described above. Three to four rounds of bead-based panning were performed to identify scFv binders to each peptide-HLA complex. For each round of panning, an aliquot of starting phage was set aside for input titering and the remaining phage was depleted three times against Dynabead M-280 streptavidin beads (Life Technologies) followed by a depletion against Streptavidin beads pre-bound with 100 μmoles of pooled negative peptide-HLA complexes. For the first round of panning, 100 μmoles of peptide-HLA complex bound to streptavidin beads was incubated with depleted phage for 2 hours at room temperature with rotation. Three five-minute washes with 0.5% BSA in 1×PBST (PBS+0.05% Tween-20) followed by three five-minute washes with 0.5% BSA in 1×PBS were utilized to remove any unbound phage to the peptide-HLA complex bound beads. To elute the bound phage from the washed beads, 1 ml 0.1M TEA was added and incubated for 10 minutes at room temperature with rotation. The eluted phage was collected from the beads and neutralized with 0.5 ml 1M Tris-HCl pH 7.5. The neutralized phage was then used to infect log growth TG-1 cells (OD₆₀₀=0.5) and after an hour of infection at 37° C., cells were plated onto 2YT media with 100 μg/ml carbenicillin and 2% glucose (2YTCG) agar plates for output titer and bacterial growth for subsequent panning rounds.
# 96-well and/or 384-well streptavidin coated plates (Pierce) were coated with 2 μg/ml peptide-HLA complex in HLA buffer and incubated overnight at 4° C. Plates were washed three times between each step with PBST (PBS+0.05%). The antigen coated plates were blocked with 3% BSA in PBS (blocking buffer) for 1 hour at room temperature. After washing, scFv PPEs were added to the plates and incubated at room temperature for 1 hour. Following washing, mouse anti-v5 antibody (Invitrogen) in blocking buffer was added to detect scFv and incubated at room temperature for 1 hour. After washing, HRP-goat anti-mouse antibody (Jackson ImmunoResearch) was added and incubated at room temperature for 1 hour.
row,Binder,binding result
1,"G2(1D06) scFv (scFv, V domains shown) VH: QVQLVQSGAEVKKPGSSVKVSCKASGYTFTSQYMHWVRQAPGQGLEWMGRIIPLLGIVNYAQKFQGRVTITADESTSTAYMELSSLRSEDTAVYYCARDKNYYGMDVWGQGTTVTVSS VL: EIVMTQSPATLSVSPGERATLSCRASQSVSRNLAWYQQKPGQAPRLLIYGASTRATGIPARFSGSGSGTEFTLTISSLQSEDFAVYYCQHYGYSPVTFGQGTKLEIK",binds
2,"G2(1B08) scFv (scFv, V domains shown) VH: QVQLVQSGAEVKKPGASVKVSCKASGYTFTNYHMHWVRQAPGQGLEWMGWIHPDSGGTSYAQKFQGRVTMTRDTSTSTVYMELSSLRSEDTAVYYCARNWNLDYWGQGTLVTVSS VL: DIQMTQSPSSLSASVGDRVTITCRASQSISNWLAWYQQKPGKAPKLLIYAASSLQSGVPSRFSGSGSGTYFTLTISSLQPEDFATYYCQQSYSSPYTFGQGTKLEIK",binds
3,"G2(1C06) scFv (scFv, V domains shown) VH: QVQLVQSGAEVKKPGASVKVSCKASGYTFTDYQMFWVRQAPGQGLEWMGWINPNSGGTNYAQKFQGRVTMTRDTSTSTVYMELSSLRSEDTAVYYCAKGGGGYGMDVWGQGTTVTVSS VL: DIQMTQSPSSLSASVGDRVTITCRASQGISNYLAWYQQKPGKAPKLLIYAASSLQSGVPSRFSGSGSGTDFTLTISSLQPEDFATYYCQQSYSDQWTFGQGTKVEIK",binds
4,"G2(2D04) scFv (scFv, V domains shown) VH: QVQLVQSGAEVKKPGASVKVSCKASGYTFSNFLINWVRQAPGQGLEWMGWINPNSGGTNYAQKFQGRVTMTRDTSTSTVYMELSSLRSEDTAVYYCASERELPFDIWGQGTMVTVSS VL: DIQMTQSPSSLSASVGDRVTITCRASQSISSWVAWYQQKPGKAPKLLIYGASNLESGVPSRFSGSGSGTDFTLTISSLQPEDFATYYCQQSYSTPYSFGQGTKLEIK",binds
5,"G2(1E03) scFv (scFv, V domains shown) VH: QVQLVQSGAEVKKPGASVKVSCKASGYTFTGYYMHWVRQAPGQGLEWMGWMNPNSGNTGYAQKFQGRVTMTRDTSTSTVYMELSSLRSEDTAVYYCATYDDGMDVWGQGTTVTVSS VL: DIQMTQSPSSLSASVGDRVTITCRASQSISHYLNWYQQKPGKAPKLLIYGASSLQSGVPSRFSGSGSGTDFTLTISSLQPEDFATYYCQQSYTTPWTFGQGTRLEIK",binds
6,"G2(2A09) scFv (scFv, V domains shown) VH: QVQLVQSGAEVKKPGASVKVSCKASGGTFSSYAISWVRQAPGQGLEWMGWINPNSGGTNYAQKFQGRVTMTRDTSTSTVYMELSSLRSEDTAVYYCAAMGIAVAGGMDVWGQGTLVTVSS VL: DIQMTQSPSSLSASVGDRVTITCRASQSISRWLAWYQQKPGKAPKLLIYAASSLQSGVPSRFSGSGSGTDFTLTISSLQPEDFATYYCQQSYLPPYSFGQGTKVEIK",binds
7,"G2(2F01) scFv (scFv, V domains shown) VH: QVQLVQSGAEVKKPGASVKVSCKASGYTFTSYYMHWVRQAPGQGLEWMGMINPRDDTTDYARDFQGRVTMTRDTSTSTVYMELSSLRSEDTAVYYCALSGNYYGMDVWGQGTTVTVSS VL: DIQMTQSPSSLSASVGDRVTITCQASQDISNYLNWYQQKPGKAPKLLIYGASRLQSGVPSRFSGSGSGTDFTLTISSLQPEDFATYYCQEGITYTFGQGTKVEIK",binds

# Target: HLA-A*02:01_… (HLA-PEPTIDE target G8), recombinant complex (human, enzymatically biotinylated (BirA) for screening and functional assays)
# Assay: scFv PPE ELISA
row,Binder,fold selective binding to target pHLA over minipool of negative control pHLAs
1,"G8(1A03) scFv (scFv, V domains shown) VH: QVQLVQSGAEVKKPGASVKVSCKASGGTFSRSAITWVRQAPGQGLEWMGWINPNSGATNYAQKFQGRVTMTRDTSTSTVYMELSSLRSEDTAVYYCARDDYGDYVAYFQHWGQGTLVTVSS VL: DIQMTQSPSSLSASVGDRVTITCRASQSITSYLNWYQQKPGKAPKLLIYDASNLETGVPSRFSGSGSGTDFTLTISSLQPEDFATYYCQQNYNSVTFGQGTKLEIK",≥ 3 fold
2,"G8(1A06) scFv (scFv, V domains shown) VH: QVQLVQSGAEVKKPGASVKVSCKASGYTFTNYYMHWVRQAPGQGLEWMGWMNPIGGGTGYAQKFQGRVTMTRDTSTSTVYMELSSLRSEDTAVYYCARVYDFWSVLSGFDIWGQGTLVTVSS VL: DIQMTQSPSSLSASVGDRVTITCRASQAISNSLAWYQQKPGKAPKLLIYAASTLQSGVPSRFSGSGSGTDFTLTISSLQPEDFATYYCGQSYSTPPTFGQGTKLEIK",≥ 3 fold
3,"G8(1D02) scFv (scFv, V domains shown) VH: EVQLLESGGGLVQPGGSLRLSCAASGFTFSSYWMSWVRQAPGKGLEWVSSISGRGDNTYYADSVKGRFTISRDNSKNTLYLQMNSLRAEDTAVYYCARASGSGYYYYYGMDVWGQGTTVTVSS VL: DIQMTQSPSSLSASVGDRVTITCQASQDISNYLNWYQQKPGKAPKLLIYAASSLQSGVPSRFSGSGSGTDFTLTISSLQPEDFATYYCQQSYSAPYTFGGGTKVEIK",≥ 3 fold
4,"G8(1C11) scFv (scFv, V domains shown) VH: QVQLVQSGAEVKKPGASVKVSCKASGGTLSSYPINWVRQAPGQGLEWMGWISTYSGHADYAQKLQGRVTMTRDTSTSTVYMELSSLRSEDTAVYYCARSYDYGDYLNFDYWGQGTLVTVSS VL: DIQMTQSPSSLSASVGDRVTITCQASQDISNYLNWYQQKPGKAPKLLIYAASSLQSGVPSRFSGSGSGTDFTLTISSLQPEDFATYYCQQSYSIPPTFGGGTKVDIK",≥ 3 fold
5,"G8(1A04) scFv (scFv, V domains shown) VH: QVQLVQSGAEVKKPGASVKVSCKASGYPFIGQYLHWVRQAPGQGLEWMGIINPSGDSATYAQKFQGRVTMTRDTSTSTVYMELSSLRSEDTAVYYCARDLSYYYGMDVWGQGTTVTVSS VL: DIQMTQSPSSLSASVGDRVTITCWASQGISSYLAWYQQKPGKAPKLLIYAASSLQSGVPSRFSGSGSGTDFTLTISSLQPEDFATYYCQQSYNTPWTFGPGTKVDIK",≥ 3 fold
6,"G8(1B03) scFv (scFv, V domains shown) VH: EVQLLESGGGLVQPGGSLRLSCAASGFTFSDYYMSWVRQAPGKGLEWVSGINWNGGSTGYADSVKGRFTISRDNSKNTLYLQMNSLRAEDTAVYYCARVEQGYDIYYYYYMDVWGKGTTVTVSS VL: DIQMTQSPSSLSASVGDRVTITCRASQSISSYLNWYQQKPGKAPKLLIYKASSLESGVPSRFSGSGSGTDFTLTISSLQPEDFATYYCQQSYSAPYTFGPGTKVDIK",≥ 3 fold
7,"G8(1H08) scFv (scFv, V domains shown, also called G8-P1H08) VH: QVQLVQSGAEVKKPGASVKVSCKASGYTFGNYFMHWVRQAPGQGLEWMGMVNPSGGSETFAQKFQGRVTMTRDTSTSTVYMELSSLRSEDTAVYYCAASTWIQPFDYWGQGTLVTVSS VL: DIQMTQSPSSLSASVGDRVTITCRASQGINSYLAWYQQKPGKAPKLLIYDASNLETGVPSRFSGSGSGTDFTLTISSLQPEDFATYYCQQHNSYPPTFGQGTKLEIK",≥ 3 fold
